For one series, the system named is LK^b cells. The series is described as follows: Flow cytometry measure of […] presentation (25.D1.16 antibody). It is filed as cell-based, mouse. The following applies: for processing and presentation of SIINFEKL from GNP, flow cytometric method: LKb cells pulsed 2 h with GNP equivalent to 1, 0.1 or 0.01 ug/mL peptide, FIG. 1A-D. On the procedure:
(§1) Next, GNPs were pulsed to the equivalent of 1 ug/mL peptide (Green), 0.1 ug/mL (Blue), or 0.01 ug/mL (Red). After two hours, cells were washed, and subjected to (A-D) flow cytometric labelling with 25.D1.16 (Angel) antibody, or (E) combined with B3Z CTL for overnight co-culture. The next day, cells were lysed and Beta-galactosidase activity was measured.
In order to analyze epitope linkage to nanoparticles, we first optimized a readout assay for the presentation of the epitope released from the nanoparticle. For this purpose, […] (SEQ ID NO: 2) presentation in LK^b cells was evaluated. As mentioned earlier, more than one reagent exists. Of the two methods tested, one is flow cytometry-based, while the other is cell-based. The flow cytometry-based method begins with pulsing LK^b cells with differing amounts of […] (SEQ ID NO: 2) peptide. After allowing enough time for peptide binding to surface K^b molecules, cells were washed and incubated with the 25.D1.16 antibody which is specific to the […]:K^b (SEQ ID NO: 2) complex. Next, the cells were secondarily labelled and subjected to flow cytometry analysis using unpulsed cells as the background reading.
LK^b cells were treated with varying amounts of […] (SEQ ID NO: 2) peptides. […] Cells were then washed two times in PBS and incubated for 30 min on ice with FITC-labeled goat anti-mouse IgG secondary antibody (Caltag Laboratories, Burlingham, Calif.). Finally, cells were washed two times with PBS and resuspended in PBS+0.1% BSA for flow cytometry on a Guava EasyCyte Plus Flow Cytometer (Millipore, Billerica, Mass.) and analyzed using the accompanying software.
(§2) To assay […] (SEQ ID NO: 2) presentation using a flow cytometric or cell-based method, we pulsed LK^b cells in a 15 mL conical at 37° C. for 2 hrs. Following this incubation, cells were washed once with PBS and then subjected to detection using flow cytometry or added to B3Z cells at an effector to target ratio of 1:1.
(§3) […] (SEQ ID NO: 2), an epitope derived from ovalbumin that is presented in the context of the murine MHCI molecule H-2 Kb, was measured using two methods. One method utilized a TCR-like antibody termed 25.D1.16, also referred to as “Angel”, that recognize […] (SEQ ID NO: 2)/MHCI complex. In addition, we assessed presentation using the B3Z, […] (SEQ ID NO: 2) peptide specific CTL hybridoma, which expresses β-galactosidase under the NFAT (CTL signaling molecule) promoter, which upon activation express beta-gal measured by a light emitting substrate.
(A flow cytometer gives signals particle by particle.)

In series [1] the test system is B3Z (OVA peptide specific T cell line). The series is described as follows: B3Z T cell activation (β-galactosidase) measure of antigen presentation. It is filed as cell-based, mouse. The following applies: for processing and presentation of SIINFEKL from GNP, CTL-based method: LKb cells pulsed 2 h with GNP equivalent to 1, 0.1 or 0.01 ug/mL peptide, overnight co-culture with B3Z, FIG. 1E. As for the experimental part: as §1
Another form of epitope-specific antigen presentation is the measurement of T cell activation by the MHCI peptide complex. Here, we used B3Z (OVA peptide specific T cell line), which recognizes […] (SEQ ID NO: 2) the context of K^b. As a convenient measure, this T cell line contains β-galactosidase cloned with the NFAT promoter. Upon peptide recognition and T cell activation, β-galactosidase is expressed and conversion of a detectible substrate serves as an excellent measure of antigen presentation to T cells.
To evaluate this method, we performed a similar experiment as above. LK^b cells were pulsed with […] (SEQ ID NO: 2) peptide, washed, and then co-incubated with B3Z T cell line overnight. The next day, cells were lysed and β-galactosidase was measured using a luminescent substrate. As expected, the resolution of this method was similar to the previous method with the limit of detection at approximately 5 ng/mL.
The […]:Kb-specific T hybridoma (B3Z) (SEQ ID NO: 2) expresses (β-galactosidase upon recognition of peptide-MHC class I complexes and has been described previously (3, 6). T cell hybridomas were maintained in complete RPMI plus 10% FCS and 0.05 mM 2-ME. Activation was measured using the luminescent substrate Galactolight Plus (Applied Biosystems, Foster City, Calif.) according to the manufacturer's instructions. Light intensity was measured using a TopCount NXT plate reader (Perkin Elmer, Waltham, Mass.).
as §2, §3

Series [2] can be described thus: Aggregation and solubilisation of nanoparticle preparations. The format is physicochemical. The following applies: for aggregation of NP after repeat production: 75% methanol in the synthesis stage; for solubility of aggregates in alkali: 300 mM NaOH; for aggregation of NP after production: first production (95% methanol); for solubility of aggregates: water, 10% acetic acid, PBS, DMSO or DMF. As for the experimental part: The following method was used; 1.5 μmole peptide was dissolved in 2 ml methanol, followed by the addition of 30 μmole GlcC2 in 200 μl methanol, and 116 μl of aqueous gold chloride containing 10 μmole Au. The sample was vortexed for 30 sec, shaken for approximately 5 min and then under rapid vortexing for a total of 30 sec 200 μl of 1M NaBH4 was added, tubes were sealed and then gently shaken for 1.5 h.
Samples were bench spun the supernatant removed and the dark pellet dissolved in 2 ml water, and then transferred to a 10 kDa vivaspin for a total of 4 times 2 ml water washes each of 8 min at 5 Krpm.
Nanoparticles (NPs) were removed from the vivaspins and made up to 500 μl with water, they were then subjected to 15 Krpm bench spin to remove any large aggregates.
NP's 2-5 were produced by a variation using 75% methanol not 95% in the synthesis stage.

Numbered stars: 1 amine (or outer) side, 2 acyl side, 3 side chain; on linkers, the order of the positions; unused ones are H or OH. Square brackets hold non-standard residues; d marks the D form. Ends that are not written are not given here. Cysteamide = C(CS[*:3])N[*:1]; Mpa = O=C(O)CCS

On to “GNP 8: gold nanoparticle with GlcC2 ligands and peptide ligand 8, HS(CH2)2-CONH-FLAAYSIINFEKL ([Mpa]FLAAYSIINFEKL; numbers in words are those of the source; also: on gold nanoparticle with GlcC2 ligands)”, for which the “processing and presentation of SIINFEKL from GNP, flow cytometric method” value in the series with LK^b cells was “good processing and presentation”. Moreover, the “presentation from preparations lacking free peptide, flow cytometry” value in the series with LK^b cells (Sephadex G-50 purified new GNP vs old GNP, FIGS. 3C-E) is reported as “work just as well as those containing peptide”. In series [1], the “processing and presentation of SIINFEKL from GNP, CTL-based method” value was “good processing and presentation”. Also, the “presentation from preparations lacking free peptide, B3Z assay” value in series [1] (Sephadex G-50 purified new GNP vs old GNP, overnight incubation, FIG. 3F) is recorded as “confirmed”.

“GNP 12: gold nanoparticle with GlcC2 ligands and peptide ligand 12, HS—(CH2)10-(CH2OCH2)7-CONH-FLAAYSIINFEKL ({HS‑(CH2)10‑(CH2OCH2)7‑CO}-FLAAYSIINFEKL; also: on gold nanoparticle with GlcC2 ligands)”: the “processing and presentation of SIINFEKL from GNP, flow cytometric method” value in the series with LK^b cells was “good processing and presentation”. For the same substance, the “processing and presentation of SIINFEKL from GNP, CTL-based method” value in series [1] is “good processing and presentation”.

“NP2: gold nanoparticle with GlcC2 ligands and peptide ligand 2, SIINFEKL-N—(CH2)2-SH”: the “aggregation of NP after repeat production” value in series [2] is listed as “‘normal’ NP”.

Turning to “NP 3: gold nanoparticle with GlcC2 ligands and peptide ligand 3, FLSIINFEKL-N—(CH2)2-SH (FLSIINFEKL-Cysteamide; also: on gold nanoparticle with GlcC2 ligands)”, in series [2], the “solubility of aggregates in alkali” value is recorded as “total NP solubilisation”, the “aggregation of NP after repeat production” value is on record as “formed aggregates”, the “aggregation of NP after production” value was “large near complete aggregation” and the solubility of aggregates result was “not soluble”.

In the case of “NP 4: gold nanoparticle with GlcC2 ligands and peptide ligand 4, FLAAYSIINFEKL-N—(CH2)2-SH (FLAAYSIINFEKL-Cysteamide; also: on gold nanoparticle with GlcC2 ligands)”, in series [2], the “solubility of aggregates in alkali” value is given as “total NP solubilisation”, the “aggregation of NP after repeat production” value is “formed aggregates”, the “aggregation of NP after production” value is recorded as “large near complete aggregation” and the solubility of aggregates entry is on record as “not soluble”.

For “SIINFEKL (listed as Gallus gallus) [reference compound]”, the “lowest pulse concentration at which surface SIINFEKL:K^b complexes were detected” value in the series on LK^b cells (LK^b cells pulsed with free SIINFEKL peptide, unpulsed cells as background) is reported as 5 ng/mL. In series [1] (LK^b cells pulsed with free SIINFEKL peptide, co-incubated with B3Z overnight, luminescent substrate), the limit of detection entry is on record as “approximately 5 ng/mL”.

For the origin of these results see patent US9598479B2, “Nanoparticle-peptide compositions” (Midatech Ltd., priority 2011, dated 2017).
